Experiment [1] addresses T1, membrane-bound full-length human HVEM on stable HVEM-transfected HEK293F cells (clone no. 128) (human, UniProt Q92956 39-283).
T1 construct: The same cDNA was also expressed on Sf9 insect cells; also called TNFRSF14; CD270
T1 sequence: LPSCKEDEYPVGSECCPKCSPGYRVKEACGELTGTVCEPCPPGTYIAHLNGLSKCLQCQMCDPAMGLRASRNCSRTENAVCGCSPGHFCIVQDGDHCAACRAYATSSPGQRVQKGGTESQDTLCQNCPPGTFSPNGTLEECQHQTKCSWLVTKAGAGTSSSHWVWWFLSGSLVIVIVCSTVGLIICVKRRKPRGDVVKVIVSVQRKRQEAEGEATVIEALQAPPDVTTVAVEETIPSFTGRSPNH
Briefly: FACS titration on HVEM-HEK293F, half-maximum binding. The method, then: In order to determine the relative binding affinity of purified BTLA/HVEM blocking chimeric mouse/human anti-human HVEM antibodies no. 36H12, 45H6, 48H6, 11H7, and 49G4 for human HVEM, FACS analysis was used.
To this end, stable human full-length HVEM-transfected HEK293F cells (clone no. 128; see Example 1(a) above) were put at 10×10⁶ cells/mL in ice-chilled PBS containing 0.1% BSA (Sigma)/0.05% NaN₃ (PBS/BSA/NaN₃) supplemented with 50 μg/mL human IgGs (blocking possible Fcγ receptors; Sigma) for 10 minutes at 4° C. Then, 10 μL/tube (i.e., 0.1×10⁶ cells) of these cells were incubated with or without 100 μL titrated (in PBS/BSA/NaN₃) purified BTLA/HVEM blocking chimeric mouse/human anti-human HVEM antibody/tube for 30 minutes at 4° C. After extensive washing in PBS/BSA/NaN₃, cells were subsequently incubated with 1:200 diluted PE-conjugated goat anti-human IgG Fcγ-specific antibodies (Jackson ImmunoResearch) for 30 minutes at 4° C. After extensive washing in PBS/BSA/NaN₃, cells were fixed in 4% formaldehyde in PBS/BSA/NaN₃ for 30 minutes at 4° C. Binding (geo-mean fluorescence intensity) of chimeric mouse/human anti-human HVEM antibodies no. 36H12, 45H6, 48H6, 11H7, and 49G4 on membrane human HVEM was measured using a flow cytometer (FACSCalibur; BD Biosciences). For comparison, purified BTLA/HVEM blocking mouse anti-human HVEM antibody counterparts no. 36H12, 45H6, 48H6, 11H7, and 49G4 were run in parallel, and their binding was monitored as described in Example 2 (a).

The target in experiment [2] is T1, membrane-bound full-length human HVEM …. As to the kind of experiment: FACS, biotinylated TNFβ pre-bound, then Ab 20 µg/mL. The method, then:
(§1) Generation of human ‘full-length’ HVEM-transfected HEK293F cells (clone no. 128) is described in Example 1a. Displacement of pre-bound soluble human BTLA, soluble human CD160, soluble human LIGHT, and soluble human TNFβ from surface human HVEM-transfected cells was analysed by FACS analysis. To this end, stable human full-length HVEM-transfected HEK293F cells were put at 10×10⁶ cells/mL in ice-chilled phosphate-buffered saline containing 0.1% BSA (Sigma)/0.05% NaN₃ (PBS/BSA/NaN₃) supplemented with 50 μg/mL human IgGs (blocking possible Fcγ receptors; Sigma) for 10 minutes at 4° C. Then, 10 μL/tube (i.e., 0.1×10⁶ cells) of these cells were incubated without or with 50 μL soluble biotinylated human BTLA-human Fcγ fusion protein (Sino Biological Inc) at 2 μg/mL/tube, with soluble his-tagged human CD160 (Sino Biological Inc) at 20 μg/mL/tube, with soluble his-tagged human LIGHT (Sino Biological Inc) at 2 μg/mL/tube, or with soluble biotinylated human TNFβ (Sino Biological Inc) at 0.2 μg/mL/tube in PBS/BSA/NaN₃ for 30 minutes at 4° C. After this (i.e., without washing), cells were subsequently incubated with 50 μL purified chimeric mouse/human anti-HVEM antibody at 20 μg/mL/tube or a human IgG4/κ (Sigma) negative isotype control at 20 μg/mL/tube for 30 minutes at 4° C. […] After extensive washing in PBS/BSA/NaN₃, cells were incubated with 1:200 diluted PE-conjugated streptavidin (detection CD160 and LIGHT; Jackson ImmunoResearch) for 30 minutes at 4° C. After extensive washing in PBS/BSA/NaN₃, cells were fixed in 4% formaldehyde in PBS/BSA/NaN₃ for 30 minutes at 4° C. Residual binding of ligands BTLA, CD160, LIGHT and TNFβ on membrane human HVEM was measured using a flow cytometer (model FACSCalibur; BD Biosciences).
In general terms: In flow cytometry, cells or beads pass a laser one at a time.

Experiment [3] has the same target. Briefly: FACS, biotinylated BTLA-Fc pre-bound, then Ab 20 µg/mL. As to the method:
as §1

Experiment [4] shares this target. As to the kind of experiment: FACS, Ab 10 µg/mL then biotinylated BTLA on HVEM-HEK293F. The method, then: (§2) Generation of human ‘full-length’ HVEM-transfected HEK293F cells (clone no. 128) is described in Example 1a. Binding of soluble human BTLA, of soluble human CD160, of soluble human LIGHT, and of soluble human TNFβ on surface human HVEM-transfected cells was analysed by FACS analysis. To this end, stable human full-length HVEM-transfected HEK293F cells were put at 10×10⁶ cells/mL in ice-chilled phosphate-buffered saline containing 0.1% BSA (Sigma)/0.05% NaN₃ (PBS/BSA/NaN₃) supplemented with 50 μg/mL human IgGs (blocking possible Fcγ receptors; Sigma) for 10 minutes at 4° C. Then, 10 μL/tube (i.e., 0.1×10⁶ cells) of these cells were incubated with or without 100 μL purified chimeric mouse/human anti-HVEM antibody at 10 μg/mL/tube or a human IgG4/κ (Sigma) negative isotype control at 10 μg/mL/tube for 30 minutes at 4° C. After this (i.e., without washing), cells were subsequently incubated with 1 μg/mL soluble biotinylated human BTLA (Sino Biological Inc), with 10 μg/mL soluble his-tagged human CD160 (Sino Biological Inc), with 1 μg/mL soluble his-tagged human LIGHT (Sino Biological Inc), or with 0.1 μg/mL soluble biotinylated human TNFβ (Sino Biological Inc) in PBS/BSA/NaN₃ for 30 minutes at 4° C. After extensive washing in PBS/BSA/NaN₃, cells were incubated with 1:200 diluted PE-conjugated streptavidin (detection BTLA and TNFβ; Jackson ImmunoResearch) or with biotinylated mouse anti-his antibody (detection CD160 and LIGHT; R&D Systems) at 10 μg/mL for 30 minutes at 4° C. After extensive washing in PBS/BSA/NaN₃, cells were incubated with 1:200 diluted PE-conjugated streptavidin (detection CD160 and LIGHT; Jackson ImmunoResearch) for 30 minutes at 4° C. After extensive washing in PBS/BSA/NaN₃, cells were fixed in 4% formaldehyde in PBS/BSA/NaN₃ for 30 minutes at 4° C. Binding of ligands BTLA, CD160, LIGHT and TNFβ on membrane human HVEM was measured using a flow cytometer (model FACSCalibur; BD Biosciences). For comparison, purified BTLA/HVEM blocking mouse anti-human HVEM antibody counterparts no. 36H12, 45H6, 48H6, 11H7, and 49G4 at 10 μg/mL/tube and a mouse IgG1 (BD Biosciences) negative isotype control at 10 μg/mL/tube were run in parallel.

The target is the same in experiment [5]. Briefly: FACS, Ab 10 µg/mL then biotinylated TNFβ on HVEM-HEK293F. The method, then: as §2
Experiment [6] has as its target T2, membrane-bound 'CRD1 truncated' human HVEM on transiently transfected HEK293F cells (human, UniProt Q92956 76-283).
T2 construct: aa 1-19 are a mouse Ig signal peptide and are left out; Starts with CRD2; also called human HVEM deleted for CRD1; CRD1 truncated HVEM
T2 sequence: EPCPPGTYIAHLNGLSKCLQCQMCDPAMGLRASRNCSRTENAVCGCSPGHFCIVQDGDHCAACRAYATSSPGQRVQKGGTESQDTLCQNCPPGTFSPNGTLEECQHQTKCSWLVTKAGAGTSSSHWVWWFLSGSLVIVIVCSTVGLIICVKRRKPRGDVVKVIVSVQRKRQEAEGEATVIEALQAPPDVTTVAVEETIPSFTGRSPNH
As to the kind of experiment: FACS, undiluted hybridoma supernatant, CRD1 truncated HVEM on HEK293F. As to the method: Generation of human ‘full-length’ HVEM-transfected HEK293F cells (clone no. 128) is described in Example 1a. […] After 72 hours, surface human HVEM expression on transfected cells was analysed by FACS analysis. To this end, stable human full-length HVEM-transfected HEK293F cells and transient human ‘CRD1 truncated’ HVEM-transfected HEK293F cells were put at 10×10⁶ cells/mL in ice-chilled phosphate-buffered saline containing 0.1% BSA (Sigma)/0.05% NaN₃ (PBS/BSA/NaN₃) supplemented with 50 μg/mL human IgGs (blocking of possible Fcγ receptors; Sigma) for 10 minutes at 4° C. Then, 10 μL/tube (i.e., 0.1×10⁶ cells) of these cells were incubated with 100 μL undiluted hybridoma supernatant/tube for 30 minutes at 4° C. Phycoerythrin (PE)-conjugated mouse anti-human HVEM antibody (clone eBioHVEM-122; eBioscience) at 1:20 was run as a positive control antibody. After extensive washing in PBS/BSA/NaN₃, cells were subsequently incubated with 1:200 diluted PE-conjugated goat anti-mouse IgG Fcγ-specific antibodies (Jackson ImmunoResearch) for 30 minutes at 4° C. After extensive washing in PBS/BSA/NaN₃, cells were fixed in 2% formaldehyde in PBS/BSA/NaN₃ for 30 minutes at 4° C. Binding of antibodies was measured using a flow cytometer (model FACSCalibur; BD Biosciences).

Some results are limits rather than exact numbers.

B1: chimeric mouse/human IgG4/kappa anti-human HVEM antibody no. 11H7 (antibody, V domains shown)
VH: QVQLKQSGPGLVQPSQSLSITCTVSGFSLTIYGVHWVRQSPGKGLEWLGVIWSGGSTDYNAAFISRLSISKDNSKSQVFFKMNSLQANDTAIYYCARRDYGSRSFYYAMDYWGQGTSVTVSS
VL: EIVLTQSPALMAASPGEKVTITCSVSSSISSSNLHWYQQKSETSPKPWIYGTSNLASGVPVRFSGSGSGTSYSLTISSMEAEDAATYYCQQWSSYPLTFGGGTKLEIKR
notes: 40/41 within the entry; Stabilized human IgG4 (S239P) already in the entry; also called chimeric 11H7
What is called EC50 is the concentration giving half of the maximal effect. Higher therefore signals lower potency in that assay. On to B1, for which the EC50 in experiment [1] was 0.63 µg/mL. Besides, the “% displacement of pre-bound ligand” value is under 20% in experiment [2] and over 95% in experiment [3]. In addition, the “% blocking of ligand binding” value in experiment [4] is over 95%; in experiment [5], over 55%.

B2: mouse anti-human HVEM antibody no. 11H7 (antibody, mouse IgG1, V domains shown)
VH: B1 VH
VL: EIVLTQSPALMAASPGEKVTITCSVSSSISSSNLHWYQQKSETSPKPWIYGTSNLASGVPVRFSGSGSGTSYSLTISSMEAEDAATYYCQQWSSYPLTFGGGTKLEIK
notes: mouse IgG1/kappa; also called 11H7 (mouse)
Turning to B2, the EC50 in experiment [1] came out at 0.532 µg/mL. The “% blocking of ligand binding” value in experiment [4] was over 95%; in experiment [5], over 60%. Further, in experiment [6], the binding result is reported as “no binding”.

B3: mouse anti-human HVEM antibody no. 49G4 (antibody, mouse IgG1, V domains shown)
VH: EVQLQQSGAELVKPGASVKLSCRASGFNIKDTYMHWVKQRPEQGLEWIGRIDPARGNTKYDPKFQGKATITADTSSNTAYLQLSSLTSEDTAVYYCASAMDYWGQGTSVTVSS
VL: DVLMTQTPLSLPVSLGDQASISCRSSQSIVHSNGNTYLEWFLQKPGQSPKLLIYKVSNRFSGVPDRFSGSGSGTDFTLKISRVEAEDLGVYYCFQGSHVPLTFGAGTKLELK
notes: mouse IgG1/kappa; also called 49G4 (mouse)
In turn, B3 returned an EC50 in experiment [1] of 0.266 µg/mL. For the same molecule, the “% blocking of ligand binding” value in experiment [4] is over 95%; in experiment [5], over 85%. In experiment [6], the binding result was “no binding”.

B4: mouse anti-human HVEM antibody no. 45H6 (antibody, mouse IgG1, V domains shown)
VH: DVQLVESGGGLVQPGGSRKLSCAASGFTFSSFGMHWVRQAPEKGLEWVAYISSGNSNIYYVDTVKGRFTISRDNPKNTLFLQMTSLRSEDTAMYYCARKRAYGDYSGFSMDYWGQGTSVTVSS
VL: DIVMTQSQKFMSTSVGDRVSVTCKASQNVDTNVAWYQQKPGQSPKALIYSASYRYSGVPDRFTGSGSGTDFTLTISNVQSEDLAEYFCQQYNKFPLTFGGGTKLEIK
notes: mouse IgG1/kappa; also called 45H6 (mouse)
In the case of B4, in experiment [1], the response was half-maximal at 0.26 µg/mL (EC50). In experiment [4], the “% blocking of ligand binding” value is over 95%. Also, in experiment [6], the binding result was “no binding”.
